Where no end group is shown, it is not given here. [ ]: non-standard residue; d: D form. The star is where a group is joined. 5FAM = O=C1OC2(c3ccc(O)cc3Oc3cc(O)ccc32)c2ccc(C(=O)*)cc21; pY = N[C@@H](Cc1ccc(OP(=O)(O)O)cc1)C(=O)O
T1: p85β cSH2 (603-712) (mouse, UniProt O08908 603-712)
T1 chain: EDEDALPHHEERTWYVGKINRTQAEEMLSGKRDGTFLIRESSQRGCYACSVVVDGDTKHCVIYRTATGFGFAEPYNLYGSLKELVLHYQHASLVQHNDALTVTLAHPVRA


Assays:
Experiment in all cases: FP
[1] = biological target: p85α nSH2 (325-430) (human, UniProt P27986 325-430)
[2] = biological target: p85β nSH2 (312-425) (mouse, UniProt O08908 312-425)
[3] = biological target: p85α cSH2 (614-720) (human, UniProt P27986 614-720)
[4] = biological target: p85α nSH2 R358M (human, UniProt P27986 325-430, R358M)
[5] = biological target: T1, p85β cSH2 (603-712)

Sequence of p85α cSH2 (614-720) (P27986 614-720): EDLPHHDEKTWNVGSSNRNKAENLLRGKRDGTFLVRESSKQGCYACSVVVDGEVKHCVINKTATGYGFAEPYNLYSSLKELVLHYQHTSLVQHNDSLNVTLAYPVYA
Sequence of p85α nSH2 (325-430) (P27986 325-430): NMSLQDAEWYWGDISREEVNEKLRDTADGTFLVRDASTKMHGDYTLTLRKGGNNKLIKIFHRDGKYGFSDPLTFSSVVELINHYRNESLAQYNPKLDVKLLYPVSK
Sequence of p85β nSH2 (312-425) (O08908 312-425): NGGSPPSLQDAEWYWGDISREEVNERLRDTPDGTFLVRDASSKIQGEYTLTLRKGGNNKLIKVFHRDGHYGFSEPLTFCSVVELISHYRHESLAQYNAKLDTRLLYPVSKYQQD
Sequence of p85α nSH2 R358M (P27986 325-430 R358M): as the sequence (P27986 325-430) above, with R34M counted along it

Kd [1] [nM] | Kd [2] [µM] | Kd [3] [nM] | Kd [4] [nM] | Kd [5] [nM] | Binder
82 | 0.052 | 656 | 2900 | – | 5FAM-TEDQ[pY]SLMEDE [p85β pY607 peptide, [5-FAM]-TEDQ-[pY]-SLMEDE]
2400 | 9 | 84000 | – | – | 5FAM-TEDQ[pY]SLVEDE [p85α pY607 peptide, [5-FAM]-TEDQ-[pY]-SLVEDE]
– | – | 43 | – | 100 | 5FAM-SD[pY]MNMTP [CD28 peptide, [5-FAM]-SD-[pY]-MNMTP]

Reference: publication doi:10.1101/791277 (2019)
